Test results taken from article PMC8486843, “SPOP mutation induces replication over-firing by impairing Geminin ubiquitination and triggers replication catastrophe upon ATR inhibition” (Nature Communications, 2021).

Tests used:
SPOP MATH (D140G mutant) = target: T1, SPOP MATH (D140G mutant) (human, UniProt O43791 28-166, D140G); assay: crystal structure; 1.1 mM SPOP MATH D140G with 5.5 mM Geminin peptide; sitting drop, 22 °C; 3.4 Å; settings: both partners purified
T1 construct: SPOP, human, MATH domain, residues 28-166, D140G; Purified 'using the same protocol' as the 15N-labeled MATH domain 28-166; also called SPOP-MATH domain (D140G mutant)
T1 sequence (O43791 28-166 D140G): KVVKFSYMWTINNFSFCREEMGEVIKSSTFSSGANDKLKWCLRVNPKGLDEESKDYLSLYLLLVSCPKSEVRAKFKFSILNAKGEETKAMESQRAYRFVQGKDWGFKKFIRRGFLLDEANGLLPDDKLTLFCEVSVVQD

[1] = target: T2, 15N-labeled SPOP MATH domain (amino acids 28-166) (human, UniProt O43791 28-166, 15N-labeled); assay: NMR titration; 1H-15N HSQC of 0.2 mM 15N-labeled SPOP MATH titrated with up to 3-fold molar excess of unlabeled peptide; 298 K; phosphate buffer, 50 mM NaCl, 5 mM DTT, pH 6.0; settings: both partners purified
T2 construct: SPOP, human, MATH domain, residues 28-166; Hexahistidine tag cleaved with PreScission protease
T2 sequence (O43791 28-166): as the sequence (O43791 28-166 D140G) above, with G113D counted along it

B1: Geminin WT SBC-containing peptide (amino acids 195-209) (peptide)
peptide: AEGTVSSSTDAKPCI
notes: Geminin, human, residues 195-209; also called Geminin peptide; Geminin wild-type SBC peptide; source: synthetic peptide
B1: binds (SPOP MATH (D140G mutant)); binds [1].
